# Experimental data as given in paper PMC5095699 (Biochemistry, 2015).
# Like-named read-outs stand apart in the source and are kept apart here.
# Tests used:
# [1] = molecular target: 3,4-ketoisomerase domain of FdtD from Shewanella denitrificans (Shewanella denitrificans); experiment: crystal structure
# [2] = molecular target: 3,4-ketoisomerase domain of FdtD (Shewanella denitrificans, UniProt Q12KT8); experiment: X-ray crystal structure, […] A; format: binding; conditions: crystal soaked with 3 mM ligand, pH 7; active site, substrate analogue
# QdtA = QdtA (Thermoanaerobacterium thermosaccharolyticum, UniProt Q6TFC5, Y17R/R97H); experiment: X-ray crystal structure, […] A; format: binding; conditions: dTDP co-purified from E. coli, not added; pH 6; active site
# purified protein [3] = substrate: Cc1cn([C@H]2C[C@H](O)[C@@H](COP(=O)(O)OP(=O)(O)O[C@H]3O[C@H](C)C(=O)[C@H](O)[C@H]3O)O2)c(=O)[nH]c1=O; experiment: purified protein; conditions: 50 mM HEPES pH 7.5, 0.2 mM NADPH, 1 mg/mL KijD10
# purified protein [4] = substrate: Cc1cn([C@H]2C[C@H](O)[C@@H](COP(=O)(O)OP(=O)(O)O[C@H]3O[C@H](C)C(=O)[C@H](O)[C@H]3O)O2)c(=O)[nH]c1=O; experiment: purified protein; format: biochemical, Thermoanaerobacterium thermosaccharolyticum; conditions: 50 mM HEPES pH 7.5, 0.2 mM NADPH, 1 mg/mL KijD10
# crystal structure [5] = molecular target: the molecule itself; experiment: crystal structure
# purified protein [6] = substrate: Cc1cn([C@H]2C[C@H](O)[C@@H](COP(=O)(O)OP(=O)(O)O[C@H]3O[C@H](C)C(=O)[C@H](O)[C@H]3O)O2)c(=O)[nH]c1=O; experiment: purified protein; format: biochemical, Shewanella denitrificans; conditions: 50 mM HEPES pH 7.5, 0.2 mM NADPH, 1 mg/mL KijD10
# crystal structure [7] = molecular target: the molecule itself; experiment: crystal structure; remark: listed apart in the source
molecule,measurement,setting,value
"3,4-ketoisomerase domain of FdtD from Shewanella denitrificans (domain or fragment)",stoichiometry N,[1],2
"Cc1cn([C@H]2C[C@H](O)[C@@H](COP(=O)(O)OP(=O)(O)O[C@H]3O[C@H](C)[C@@H](NC=O)[C@H](O)[C@H]3O)O2)c(=O)[nH]c1=O [dTDP-4,6-dideoxy-4-formamido-glucose]","X-ray crystal structure, 1.7 A",[2],"structure of the enzyme was solved in the presence of dTDP-4,6-dideoxy-4-formamido-D-glucose"
Cc1cn([C@H]2C[C@H](O)[C@@H](COP(=O)(O)OP(=O)(O)O)O2)c(=O)[nH]c1=O [dTDP],"X-ray crystal structure, 2.3 A",QdtA,Observed electron density for the dTDP moiety bound to the QdtA Y17R/R97H mutant enzyme
QdtA (Thermoanaerobacterium thermosaccharolyticum; Y17R) (protein) MLYNVALIKFKDIADKRGHLTPIEGKIDIPFDIKRVYYITKVDKDITRGYHAHKKLHQVLICLNGSVKIRLKIPDEEKIIELNDPSVGLYIGPFLWREMFDFTEGCVLLVLASEYCDETDYIRNYDFYIDEAKKRF,Km,purified protein [3],370 ± 60 µM
QdtA (Thermoanaerobacterium thermosaccharolyticum; R97H) (protein) MLYNVALIKFKDIADKYGHLTPIEGKIDIPFDIKRVYYITKVDKDITRGYHAHKKLHQVLICLNGSVKIRLKIPDEEKIIELNDPSVGLYIGPFLWHEMFDFTEGCVLLVLASEYCDETDYIRNYDFYIDEAKKRF,Km,purified protein [4],61 ± 9 µM
same,kcat,purified protein [4],0.4 ± 0.06 s⁻¹
same,kcat/Km,purified protein [4],6500 M⁻¹ s⁻¹
QdtA Y17R/R97H double mutant from Thermoanaerobacterium thermosaccharolyticum (enzyme) MLYNVALIKFKDIADKRGHLTPIEGKIDIPFDIKRVYYITKVDKDITRGYHAHKKLHQVLICLNGSVKIRLKIPDEEKIIELNDPSVGLYIGPFLWHEMFDFTEGCVLLVLASEYCDETDYIRNYDFYIDEAKKRF,stoichiometry N,crystal structure [5],2
same,Km,purified protein [3],21 ± 5 µM
"3,4-ketoisomerase domain of FdtD (Shewanella denitrificans OS217) (protein) SNNFELKLQMSKVKGVSLHKFHLVNDLRGNLSVGEFEKDIPFTPKRYFTVFGVPNKEVRGEHAHKECKQFLICVSGNCSVLVDDGENREEYVLDSIDKGIYLPPMTWGVQYKYSKDAVLLVFASHYYDSDDYIRDYSTFKQMRQN",Km,purified protein [6],790 ± 120 µM
same,kcat,purified protein [6],4.85 ± 0.56 s⁻¹
same,kcat/Km,purified protein [6],6100 M⁻¹ s⁻¹
"QdtA from Thermoanaerobacterium thermosaccharolyticum, wild-type apoenzyme (enzyme) MLYNVALIKFKDIADKYGHLTPIEGKIDIPFDIKRVYYITKVDKDITRGYHAHKKLHQVLICLNGSVKIRLKIPDEEKIIELNDPSVGLYIGPFLWREMFDFTEGCVLLVLASEYCDETDYIRNYDFYIDEAKKRF",Km,purified protein [4],140 ± 10 µM
same,kcat,purified protein [4],3.85 ± 0.25 s⁻¹
same,kcat/Km,purified protein [4],28000 M⁻¹ s⁻¹
same,stoichiometry N,crystal structure [7],2
QdtA (Thermoanaerobacterium thermosaccharolyticum; Y37F) (protein) MLYNVALIKFKDIADKYGHLTPIEGKIDIPFDIKRVFYITKVDKDITRGYHAHKKLHQVLICLNGSVKIRLKIPDEEKIIELNDPSVGLYIGPFLWREMFDFTEGCVLLVLASEYCDETDYIRNYDFYIDEAKKRF,Km,purified protein [4],34 ± 7 µM
same,kcat,purified protein [4],0.023 ± 0.004 s⁻¹
same,kcat/Km,purified protein [4],690 M⁻¹ s⁻¹
